The values that follow come from article PMC5213842, “Characterization and Crystal Structure of a Robust Cyclohexanone Monooxygenase” (Angewandte Chemie (International Ed. in English), 2016).

The term Km denotes the concentration of substrate that gives half-maximal velocity. By kcat is commonly meant the number of substrate molecules converted per active site and unit of time at saturation.

The target of data set [1] is T1, TfPAMO (Thermobifida fusca, UniProt Q47PU3).
T1 construct: gene pamO
The data set can be described thus: small-scale conversion. Format: biochemical. As to conditions: racemic substrate; enzyme preparation not given.

Data set [2] concerns the target T2, TmCHMO (Thermocrispum municipale, UniProt A0A1L1QK39).
T2 construct: purified recombinant enzyme (E. coli used as expression host for whole-cell work)
T2 sequence (A0A1L1QK39 1-541): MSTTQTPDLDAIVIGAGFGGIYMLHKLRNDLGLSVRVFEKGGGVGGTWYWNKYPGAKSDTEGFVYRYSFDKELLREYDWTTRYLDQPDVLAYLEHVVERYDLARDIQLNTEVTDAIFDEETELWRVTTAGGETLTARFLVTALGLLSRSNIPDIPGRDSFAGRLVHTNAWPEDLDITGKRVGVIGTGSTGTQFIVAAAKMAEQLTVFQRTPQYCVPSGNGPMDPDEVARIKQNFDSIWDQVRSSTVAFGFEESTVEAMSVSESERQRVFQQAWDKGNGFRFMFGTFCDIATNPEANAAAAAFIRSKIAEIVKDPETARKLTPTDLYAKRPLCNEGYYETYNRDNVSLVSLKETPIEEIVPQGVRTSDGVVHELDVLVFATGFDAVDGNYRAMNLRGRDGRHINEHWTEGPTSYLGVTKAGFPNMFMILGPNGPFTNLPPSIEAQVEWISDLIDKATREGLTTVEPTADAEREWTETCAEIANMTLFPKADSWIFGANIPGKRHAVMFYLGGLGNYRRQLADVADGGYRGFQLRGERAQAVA
The arrangement: steady-state kinetics, NADPH consumption followed by absorbance at 340 nm. As to conditions: 150 uM NADPH, pH 7.0, 25 °C; substrate. As to the method: Steady-State Kinetics. Steady-state kinetic parameters for purified TmCHMO and AcCHMO were determined using a V-660 spectrophotometer (Jasco). Enzyme (0.02-4 μM), NADPH (150 μM), and increasing substrate concentrations were reacted in air-saturated 50 mM Tris-HCl at pH 7.0 and 25 °C. The rate of NADPH consumption was determined by following the decrease in absorbance at 340 nm (ɛ340 = 6.22 mM-1 cm-1 ). The initial rates of the reactions were plotted as a function of the substrate concentrations. […] Among the assayed compounds (Figure S3), only progesterone and cyclopentadecanone (50 μM) were not substrates of either enzyme based on the NADPH consumption assay. 19 4. EXPERIMENTAL SECTION Materials. NADPH was acquired from Jülich Chiral Solutions GmbH. All other materials were acquired from Sigma-Aldrich unless otherwise specified. Cloning of TmCHMO and BVMOs Purification. The amino acid sequence of a putative CHMO from the thermophilic actinomycete T. municipale DSM 44069 was retrieved from the NCBI database (http://www.ncbi.nlm.nih.gov). This organism is able to grow at 28-60 °C.[8] The TmCHMO sequence was found by carrying out a BLASTP (http://blast.ncbi.nlm.nih.gov/Blast.cgi) using the amino acid sequence of AcCHMO as a query sequence. A codon-optimized TmCHMO gene was synthetized and cloned into pUC57 plasmid by GenScript. […]

Data set [3] relates to O=C1CCCCC1. Briefly: purified protein.
The subject of data set [4] is O=C1CC2C=CCC12. The data set can be described thus: purified protein.
The test system of data set [5] is O=C1CCC1. Briefly: purified protein.
Substrate in data set [6]: O=C1CCCC1
The data set can be described thus: purified protein, by the assay type. The following applies: pH 7.0; 25.0 °C. On the set-up: steady-state kinetics, NADPH consumption followed by absorbance at 340 nm. As to the method: (§1) Steady-State Kinetics. Steady-state kinetic parameters for purified TmCHMO and AcCHMO were determined using a V-660 spectrophotometer (Jasco). Enzyme (0.02-4 μM), NADPH (150 μM), and increasing substrate concentrations were reacted in air-saturated 50 mM Tris-HCl at pH 7.0 and 25 °C. The rate of NADPH consumption was determined by following the decrease in absorbance at 340 nm (ɛ340 = 6.22 mM-1 cm-1 ). The initial rates of the reactions were plotted as a function of the substrate concentrations. […] Among the assayed compounds (Figure S3), only progesterone and cyclopentadecanone (50 μM) were not substrates of either enzyme based on the NADPH consumption assay. 19 4. EXPERIMENTAL SECTION Materials. NADPH was acquired from Jülich Chiral Solutions GmbH. All other materials were acquired from Sigma-Aldrich unless otherwise specified. Cloning of TmCHMO and BVMOs Purification. The amino acid sequence of a putative CHMO from the thermophilic actinomycete T. municipale DSM 44069 was retrieved from the NCBI database (http://www.ncbi.nlm.nih.gov). This organism is able to grow at 28-60 °C.[8] The TmCHMO sequence was found by carrying out a BLASTP (http://blast.ncbi.nlm.nih.gov/Blast.cgi) using the amino acid sequence of AcCHMO as a query sequence. A codon-optimized TmCHMO gene was synthetized and cloned into pUC57 plasmid by GenScript. The TmCHMO gene was subcloned using standard methods into the pCRE2 plamid[9] with XhoI and HindIII restriction sites at the 5’ end and 3’ end, respectively. The resulting plasmid is a pBAD vector harboring a gene encoding TmCHMO fused to the C-terminus of a thermostable variant of phosphite dehydrogenase (PTDH). A histidine tag at the N-terminus of the PTDH is also included in this construct. The same construct containing either the AcCHMO gene or the TfPAMO gene, instead of the TmCHMO gene, was carried out for a previous study[9] and used here to obtain the corresponding fusion proteins. The TmCHMO gene was also subcloned into a pBAD plasmid containing the SUMO (small ubiquitin-related modifier) gene with a N-terminal histidine tag (pBAD-His-Tag-SUMO-TmCHMO).

Substrate in data set [7]: CCCCCCCCC(C)=O
Briefly: purified protein, by the assay type. On the set-up: steady-state kinetics, NADPH consumption followed by absorbance at 340 nm. As to conditions: pH 7.0; 25.0 °C. As to the method:
as §1

Substrate in data set [8]: CCC(C)=O
The data set can be described thus: purified protein, by the assay type. As to conditions: pH 7.0; 25.0 °C. On the set-up: steady-state kinetics, NADPH consumption followed by absorbance at 340 nm. On the procedure: as §1

Substrate in data set [9]: CC(=O)c1ccccc1
The data set can be described thus: purified protein, by the assay type. As to conditions: pH 7.0; 25.0 °C. The arrangement: steady-state kinetics, NADPH consumption followed by absorbance at 340 nm. As to the method:
as §1

Substrate in data set [10]: CCCCCCC(C)=O
Briefly: purified protein, by the assay type. On the set-up: steady-state kinetics, NADPH consumption followed by absorbance at 340 nm. As to conditions: pH 7.0; 25.0 °C. On the procedure:
as §1

Substrate in data set [11]: CC(=O)Cc1ccccc1
The data set can be described thus: purified protein, by the assay type. The arrangement: steady-state kinetics, NADPH consumption followed by absorbance at 340 nm. The following applies: pH 7.0; 25.0 °C. On the procedure:
as §1

Substrate in data set [12]: O=C1CC2C=CCC12
Briefly: steady-state kinetics. It is filed as biochemical, Thermocrispum municipale.

Substrate in data set [13]: O=C1CCCCC1
The data set can be described thus: steady-state kinetics. Format: biochemical, Thermocrispum municipale.

Substrate in data set [14]: O=C1CCC1
Briefly: steady-state kinetics. It is filed as biochemical, Thermocrispum municipale.

T1 sequence (Q47PU3 whole entry): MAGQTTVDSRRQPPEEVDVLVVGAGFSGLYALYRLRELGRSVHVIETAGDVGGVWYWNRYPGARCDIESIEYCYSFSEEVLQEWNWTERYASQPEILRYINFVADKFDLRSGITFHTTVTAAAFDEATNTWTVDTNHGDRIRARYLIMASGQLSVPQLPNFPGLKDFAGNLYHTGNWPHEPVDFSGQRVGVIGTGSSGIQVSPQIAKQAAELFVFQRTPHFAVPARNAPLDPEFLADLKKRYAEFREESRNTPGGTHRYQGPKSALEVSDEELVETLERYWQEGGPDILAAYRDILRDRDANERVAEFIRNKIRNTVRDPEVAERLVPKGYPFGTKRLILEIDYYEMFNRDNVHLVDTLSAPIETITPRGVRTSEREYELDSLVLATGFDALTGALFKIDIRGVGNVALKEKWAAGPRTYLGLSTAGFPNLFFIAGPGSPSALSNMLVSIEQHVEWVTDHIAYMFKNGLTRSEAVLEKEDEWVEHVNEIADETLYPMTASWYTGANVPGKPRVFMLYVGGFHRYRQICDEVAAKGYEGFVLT

As for `O=C1CC2C=CCC12` (racemic) [bicyclo[3.2.0]hept‐2‐en‐6‐one], in [1], the small-scale conversion result was “By contrast, TfPAMO produced all four possible lactones”.

For `CSc1ccccc1` [thioanisole], in data set [2], the Km was under 60 µM.

AcCHMO (Acinetobacter johnsonii): the Km in [3] was found to be 9 µM. Moreover, the values for the kcat in data set [3], in data set [4] and in data set [5] were 6 s⁻¹, 4 s⁻¹ and 4 s⁻¹, respectively.

B1: TmCHMO (Thermocrispum municipale DSM 44069) (protein)
chain: T2 sequence (A0A1L1QK39 1-541)
notes: purified recombinant enzyme (E. coli used as expression host for whole-cell work)
On to B1, for which the Km was determined as 20 µM in [6]; 50 µM in data set [7]; 500 µM in [8]; 5 mM in data set [9]; 100 µM in data set [10]; 200 µM in [11]. Besides, the kcat in data set [12], in [13] and in data set [14] was 2 s⁻¹ in each case.
